This passage reports Kd results from patent publication US20240101682A1 (PINETREE THERAPEUTICS, published 2024).

Experiment [1] has as its target T1, recombinant human NRP1, biotinylated (human, UniProt O14786-2 22-644, limits assumed, biotinylated (site not stated)).
T1 construct: also called huNRP1; recombinant NRP1
The experiment can be described thus: BLI (Octet Red 96), biotinylated antigen on streptavidin sensor, bsAb in solution, bivalent format.

In experiment [2] the target is T2, recombinant human EGFR, biotinylated (human, UniProt P00533 25-645, biotinylated (site not stated)).
T2 construct: also called huEGFR; recombinant huEGFR
The experiment is described as above.

Residue numbers refer to the chain shown, from its start. Bounds are passed on as bounds.

B1: bsAb with heavy chain polypeptide SEQ ID NO: 1 and light chain SEQ ID NO: 12 (control) (bispecific antibody, human IgG2, kappa)
heavy: QVQLQESGPGLVKPSETLSLTCTVSGGSVSSGDYYWTWIRQSPGKGLEWIGHIYYSGNTNYNPSLKSRLTISIDTSKTQFSLKLSSVTAADTAIYYCVRDRVTGAFDIWGQGTMVTVSSASTKGPSVFPLAPCSRSTSESTAALGCLVKDYFPEPVTVSWNSGALTSGVHTFPAVLQSSGLYSLSSVVTVPSSNFGTQTYTCNVDHKPSNTKVDKTVERKCCVECPPCPAPPVAGPSVFLFPPKPKDTLMISRTPEVTCVVVDVSHEDPEVQFNWYVDGVEVHNAKTKPREEQFNSTFRVVSVLTVVHQDWLNGKEYKCKVSNKGLPAPIEKTISKTKGQPREPQVYTLPPSREEMTKNQVSLTCLVKGFYPSDIAVEWESNGQPENNYKTTPPMLDSDGSFFLYSKLTVDKSRWQQGNVFSCSVMHEALHNHYTQKSLSLSPGKGGGGSGGGGSGGGGSHTPGNSKPTRTPRR
light: not shown
With B1, the Kd in experiment [1] was found to be 69.7 nM.

B2: bsAb with heavy chain polypeptide SEQ ID NO: 3 and light chain SEQ ID NO: 12 (bispecific antibody, human IgG2, kappa)
heavy: QVQLQESGPGLVKPSETLSLTCTVSGGSVSSGDYYWTWIRQSPGKGLEWIGHIYYSGNTNYNPSLKSRLTISIDTSKTQFSLKLSSVTAADTAIYYCVRDRVTGAFDIWGQGTMVTVSSASTKGPSVFPLAPCSRSTSESTAALGCLVKDYFPEPVTVSWNSGALTSGVHTFPAVLQSSGLYSLSSVVTVPSSNFGTQTYTCNVDHKPSNTKVDKTVERKCCVECPPCPAPPVAGPSVFLFPPKPKDTLMISRTPEVTCVVVDVSHEDPEVQFNWYVDGVEVHNAKTKPREEQFNSTFRVVSVLTVVHQDWLNGKEYKCKVSNKGLPAPIEKTISKTKGQPREPQVYTLPPSREEMTKNQVSLTCLVKGFYPSDIAVEWESNGQPENNYKTTPPMLDSDGSFFLYSKLTVDKSRWQQGNVFSCSVMHEALHNHYTQKSLSLSPGKGGGGSGGGGSGGGGSEVQLVESGGGLVQPGGSLRLSCAASGFTFSSYAMSWVRQAPGKGLEWVSQISPAGGYTNYADSVKGRFTISADTSKNTAYLQMNSLRAEDTAVYYCARGELPYFRMSKVMDVWGQGTLVTVSSGGGGSGGGGSGGGGSDIQMTQSPSSLSASVGDRVTITCRASQFLSSYLAWYQQKPGKAPKLLIYGASARASGVPSRFSGSGSGTDFTLTISSLQPEDFATYYCQQYLASPATFGQGTKVEIK
light: not shown
Regarding B2, the Kd in experiment [1] is 0.53 nM; in experiment [2], below 0.1 nM.

B3: bsAb with heavy chain polypeptide SEQ ID NO: 4 and light chain SEQ ID NO: 12 (bispecific antibody, human IgG2, kappa)
heavy: B2 heavy with F564Y, R565Q, F626Y, L627F
light: not shown
Regarding B3, the Kd in experiment [2] was below 0.1 nM.

B4: bsAb with heavy chain polypeptide SEQ ID NO: 2 and light chain SEQ ID NO: 12 (bispecific antibody, human IgG2, kappa)
heavy: B2 heavy with F564Y, F626Y, L627F, A651S, A691G, A694P
light: not shown
Regarding B4, the Kd was 0.19 nM in experiment [1] and below 0.1 nM in experiment [2].
